Results taken from article PMC12817480, “Phospho‐Proteomics Identifies D‐Group MAP Kinases as Substrates of the Arabidopsis Tyrosine Phosphatase RLPH2” (Plant Direct, 2026).
One block for each binder: values may come before it.

Key:
Details in all cases: both partners purified
[1] = target: T1, Purified MPK9‐V5‐His6 with the RVSF motif maintained (MPK9^RVSF), as used with PP1 (Arabidopsis thaliana, UniProt Q9LV37 1-510); experiment: far-Western, overlay or dot blot; MPK9^RVXF and MPK9^RASA run on SDS‐PAGE, blotted to nitrocellulose, probed with PP1 (TOPP) isoforms (2 μg/mL) for 4 h in TBS plus 5% milk powder; PP1 detected with anti‐TOPP antibody
T1 construct: MAP kinase 9 (MPK9), Arabidopsis thaliana, At3g18040, synthesized gene codon optimized for bacteria, in pDEST42; Same construct as m2; also called MPK9^RVXF; MPK9^RVxF; source: E. coli BL21 (DE3) CodonPlus‐RIL, purified (Ni‐NTA)
T1 sequence (looked up): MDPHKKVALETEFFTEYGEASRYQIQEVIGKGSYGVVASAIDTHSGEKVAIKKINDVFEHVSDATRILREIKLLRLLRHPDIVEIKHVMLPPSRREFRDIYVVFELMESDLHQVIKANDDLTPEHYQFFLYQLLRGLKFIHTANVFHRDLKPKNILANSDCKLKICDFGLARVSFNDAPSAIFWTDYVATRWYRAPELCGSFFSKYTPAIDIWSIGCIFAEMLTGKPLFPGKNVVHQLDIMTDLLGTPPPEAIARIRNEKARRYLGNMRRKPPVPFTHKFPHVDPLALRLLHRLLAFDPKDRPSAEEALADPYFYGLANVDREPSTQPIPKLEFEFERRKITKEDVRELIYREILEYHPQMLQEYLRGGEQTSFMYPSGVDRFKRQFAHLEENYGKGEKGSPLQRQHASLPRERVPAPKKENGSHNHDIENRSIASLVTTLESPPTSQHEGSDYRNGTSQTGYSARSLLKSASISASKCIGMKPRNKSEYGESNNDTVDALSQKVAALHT

[2] = target: T1, Purified MPK9‐V5‐His6 with the RVSF …; experiment: pull-down; TOPP5 (1 μg) and MPK9^RVXF or MPK9^RASA (5 μg) incubated 1 h at RT, then with BSA‐blocked Ni‐NTA 1 h at RT; washed with 50 mM HEPES pH 7.5, 300 mM NaCl, 0.1% Tween 20; western blot (V5, pan‐TOPP)
[3] = target: T2, MPK9‐V5‐His6, full‐length, activated/phosphorylated (MPK9^TDY) (Arabidopsis thaliana, UniProt Q9LV37 1-510, phospho-threonine and phospho-tyrosine of the activation loop TDY motif (autophosphorylated; dual phosphorylated pTxpY)); experiment: far-Western, overlay or dot blot; purified activated MPKs dotted onto nitrocellulose, blocked, overlaid with purified RLPH2 (1.5 μg/mL), detected with anti‐RLPH2 antibody; in triplicate
T2 construct: MAP kinase 9 (MPK9), Arabidopsis thaliana, At3g18040, synthesized gene codon optimized for bacteria, in pDEST42; Printed as MPK9-V5-His6 (tags written after the name); also called MAP kinase 9; ATMPK9; source: E. coli BL21 (DE3) CodonPlus‐RIL, purified (Ni‐NTA), then autophosphorylated with Mg‐ATP
T2 sequence (looked up): T1 sequence (looked up)

binding result [1]: binds
B1: Arabidopsis PP1 isoform 3 (TOPP3) (enzyme, Arabidopsis thaliana, UniProt P48483 1-322, looked up)
chain: MEDSVVDDVIKRLLGAKNGKTTKQVQLTEAEIKHLCSTAKQIFLTQPNLLELEAPIKICGDTHGQFSDLLRLFEYGGYPPAANYLFLGDYVDRGKQSVETICLLLAYKIKYKENFFLLRGNHECASINRIYGFYDECKKRYSVRVWKIFTDCFNCLPVAALIDEKILCMHGGLSPELKHLDEIRNIPRPADIPDHGLLCDLLWSDPDKDIEGWGENDRGVSYTFGADKVEEFLQTHDLDLICRAHQVVEDGYEFFANRQLVTIFSAPNYCGEFDNAGAMMSVDDSLTCSFQILKASEKKGNFGFGKNAGRRGTPPRKGGGKG
notes: Type one protein phosphatase 3 (TOPP3), PP1 catalytic subunit, Arabidopsis thaliana; source: recombinant, purified on microcystin‐Sepharose (as in Templeton et al. 2011)

binding result [1]: binds
B2: Arabidopsis PP1 isoform 4 (TOPP4) (enzyme, Arabidopsis thaliana, UniProt P48484 1-321, looked up)
chain: MATTTTTQGQQTAIDSAVLDDIIRRLTEVRLARPGKQVQLSEAEIKQLCTTARDIFLQQPNLLELEAPIKICGDIHGQYSDLLRLFEYGGFPPSANYLFLGDYVDRGKQSLETICLLLAYKIKYPGNFFLLRGNHECASINRIYGFYDECKRRFNVRVWKVFTDCFNCLPVAALIDDKILCMHGGLSPDLDHLDEIRNLPRPTMIPDTGLLCDLLWSDPGKDVKGWGMNDRGVSYTFGPDKVSEFLTKHDLDLVCRAHQVVEDGYEFFADRQLVTVFSAPNYCGEFDNAGAMMSVDENLMCSFQILKPAEKKTKFMMSTKI
notes: Type one protein phosphatase 4 (TOPP4), PP1 catalytic subunit, Arabidopsis thaliana; source: recombinant, purified on microcystin‐Sepharose (as in Templeton et al. 2011)

binding result [2]: binds
B3: Arabidopsis PP1 isoform 5 (TOPP5) (enzyme, Arabidopsis thaliana, UniProt P48485 1-312, looked up)
chain: MAQQGQGSMDPAVLDDIIRRLLDYRNPKAGTKQAMLNDSEIRQLCFVSREIFLQQPCLLELAAPVKICGDIHGQYSDLLRLFEYGGFPPAANYLFLGDYVDRGKQSLETICLLLAYKIKYPENFFLLRGNHECASINRIYGFYDECKRRFNVKLWKVFTDTFNCLPVAAVIDEKILCMHGGLSPELINVEQIKNIERPTDVPDAGLLCDLLWSDPSKDVKGWGMNDRGVSYTFGADKVAEFLIKNDMDLVCRAHQVVEDGYEFFADRQLVTMFSAPNYCGEFDNAGALMSVDESLMCSFQILKPVDRRSRFF
notes: Type one protein phosphatase 5 (TOPP5), PP1 catalytic subunit, Arabidopsis thaliana; also called AtPP1; source: recombinant, purified on microcystin‐Sepharose (as in Templeton et al. 2011)

binding result [1]: binds
B4: Arabidopsis PP1 isoform 9 (TOPP9) (enzyme, Arabidopsis thaliana, UniProt Q9M9W3 1-318, looked up)
chain: MMTSMEGMMEMGVLDDIIRRLLEGKGGKQVQLSEVEIRQLCVNARQIFLSQPNLLELHAPIRICGDIHGQYQDLLRLFEYGGYPPSANYLFLGDYVDRGKQSLETICLLLAYKIRYPSKIFLLRGNHEDAKINRIYGFYDECKRRFNVRLWKIFTDCFNCLPVAALIDEKILCMHGGLSPELENLGQIREIQRPTEIPDNGLLCDLLWSDPDQKNEGWTDSDRGISCTFGADVVADFLDKNDLDLICRGHQVVEDGYEFFAKRRLVTIFSAPNYGGEFDNAGALLSVDQSLVCSFEILKPAPASSTNPLKKVPKMGKS
notes: Type one protein phosphatase 9 (TOPP9), PP1 catalytic subunit, Arabidopsis thaliana; source: recombinant, purified on microcystin‐Sepharose (as in Templeton et al. 2011)

binding result [1]: binds
B5: Arabidopsis PP1 isoform 2 (TOPP2) (enzyme, Arabidopsis thaliana, UniProt P48482 1-312, looked up)
chain: MAQQGQGSMDPAALDDIIRRLLDYRNPKPGTKQAMLNESEIRQLCIVSREIFLQQPNLLELEAPIKICGDIHGQYSDLLRLFEYGGFPPTANYLFLGDYVDRGKQSLETICLLLAYKIKYPENFFLLRGNHECASINRIYGFYDECKRRFSVRLWKVFTDSFNCLPVAAVIDDKILCMHGGLSPDLTNVEQIKNIKRPTDVPDSGLLCDLLWSDPSKDVKGWGMNDRGVSYTFGPDKVAEFLIKNDMDLICRAHQVVEDGYEFFADRQLVTIFSAPNYCGEFDNAGAMMSVDESLMCSFQILKPADRKPRFL
notes: Type one protein phosphatase 2 (TOPP2), PP1 catalytic subunit, Arabidopsis thaliana; source: recombinant, purified on microcystin‐Sepharose (as in Templeton et al. 2011)

binding result [3]: binds
B6: Arabidopsis thaliana Rhizobiales‐like phosphatase 2 (RLPH2‐V5‐His6) (enzyme, UniProt Q9SR62 1-309, looked up)
chain: MAQKPRTVICVGDIHGYISKLNNLWLNLQSAIDPSDFSSALVIFLGDYCDRGPETRKVIDFLISLPEKHPDQTHVFLAGNHDFAFSGFLGLLPRPSDGSDLKDTWKEYSKSEETEGWYTGEGFEDMHLQGRRWAGKIKATFNSVKGMAYKGSIYDAGSTFESYGVPHGSSDLMKAVPESHKKFLTNMVWVHEEDDVCIETEEGLKHCKLIAVHAGLEKGNNVEEQLKLLRAKDTSISKIQHLSGRKNVWDIPQELDDKHTVVVSGHHGKLHIDGMRLIIDEGGGFPDKPVAAIVLPSKKIIRDTDNLSS
notes: Rhizobiales-like phosphatase 2 (RLPH2), Arabidopsis thaliana; Printed as RLPH2-V5-His6 (tags written after the name); source: bacterially expressed, purified (as in Uhrig et al. 2016)

binding result [1]: binds
B7: Arabidopsis PP1 isoform 1 (TOPP1) (enzyme, Arabidopsis thaliana, UniProt P30366 1-318, looked up)
chain: MAEKPAQEQEQKRAMEPAVLDDIIRRLVEFRNTRPGSGKQVHLSEGEIRQLCAVSKEIFLQQPNLLELEAPIKICGDIHGQYSDLLRLFEYGGFPPEANYLFLGDYVDRGKQSLETICLLLAYKIKYPENFFLLRGNHESASINRIYGFYDECKRRFNVRLWKIFTDCFNCLPVAALIDDRILCMHGGISPELKSLDQIRNIARPMDIPESGLVCDLLWSDPSGDVGWGMNDRGVSYTFGADKVAEFLEKHDMDLICRAHQVVEDGYEFFAERQLVTVFSAPNYCGEFDNAGAMMSIDESLMCSFQILKPSEKKSPFL
notes: Type one protein phosphatase 1 (TOPP1), PP1 catalytic subunit, Arabidopsis thaliana; source: recombinant, purified on microcystin‐Sepharose (as in Templeton et al. 2011)

binding result [1]: binds
B8: Arabidopsis PP1 isoform 8 (TOPP8) (enzyme, Arabidopsis thaliana, UniProt O82734 1-324, looked up)
chain: MMTSMEGMVEKGVLDDIIRRLLEGKGGKQVQLSESEIRQLCFNARQIFLSQPNLLDLHAPIRICGDIHGQYQDLLRLFEYGGYPPSANYLFLGDYVDRGKQSLETICLLLAYKIRYPSKIYLLRGNHEDAKINRIYGFYDECKRRFNVRLWKVFTDCFNCLPVAALIDEKILCMHGGLSPDLDNLNQIREIQRPIEIPDSGLLCDLLWSDPDQKIEGWADSDRGISCTFGADKVAEFLDKNDLDLICRGHQVVEDGYEFFAKRRLVTIFSAPNYGGEFDNAGALLSVDESLVCSFEIMKPAPASSSHPLKKDFHNRTLGYNLSA
notes: Type one protein phosphatase 8 (TOPP8), PP1 catalytic subunit, Arabidopsis thaliana; source: recombinant, purified on microcystin‐Sepharose (as in Templeton et al. 2011)
